Test results taken from patent US9879094B2, “Nucleic acid molecules encoding for BACE1 antibodies” (Genentech, Inc., priority 2010, dated 2018).
Values joined by “and” are separate entries in the source; they are usually repeats but may differ in a detail not shown here. Equal values may be shown once.

Experiments:
BACE1 = BACE1 (Homo sapiens, UniProt P56817); experiment: HTRF BACE1 enzyme activity assay (long peptide Bi27); format: biochemical; settings: IgG, long peptide substrate
Procedure: The HTRF assay was performed as follows. […] The proteolytic reaction mixture was incubated at ambient temperature for 75 minutes and was quenched by the addition of 5 μL HTRF detection mixture containing 2 nM Streptavidin-D2 and 150 nM of 6E10 anti-amyloid beta antibody (Covance, Emoryville, Calif.) labeled with Europium cryptate in detection buffer (200 mM Tris pH 8.0, 20 mM EDTA, 0.1% BSA, and 0.8M KF). The final reaction mixture was incubated at ambient temperature for 60 minutes and the TR-FRET signal was measured using an EnVision Multilabel Plate Reader™ (Perkin-Elmer) at an excitation wavelength of 320 nm and emission wavelengths of 615 and 665 nm. Reactions lacking BACE1 enzyme (0 BACE) and reactions containing lacking anti-BACE1 antibodies (PBS (100% BACE1 Activity) were used as controls.
Fab proteins of 6 clones were purified and subjected for HTRF enzyme activity assay, as described above.
The affinity matured YW412.8.31 anti-BACE1 antibody was tested in a HTRF assay as described in Example 1. […] Additionally, reactions using a short FRET peptide (Rh-[…]-quencher (SEQ ID NO:54), Invitrogen) were also performed identically to the HTRF reactions. The resulting fluorogenic products from the control reactions were measured as above, but at an excitation wavelength of 545 nm and an emission wavelength of 585 nm. Obtained data were analyzed using GraphPad Prism 5™ (LaJolla, Calif.).

murine BACE1 ECD = target: T1, murine BACE1 ECD (Mus musculus, UniProt P56818); experiment: BIAcore SPR binding kinetics, mouse BACE1; settings: mouse BACE1, pH 7.0, 25° C.
T1 construct: human BACE1 ECD or murine BACE1 ECD (amino acids 1-457) was injected in PBT buffer
Procedure: The binding kinetics of YW412.8.31 was assessed. Briefly, binding affinities of anti-BACE1 IgGs were measured by surface plasmon resonance (SPR) using a BIAcore™-3000 instrument. YW412.8.31 anti-BACE1 human IgG was captured by mouse anti-human Fc antibody (GE Healthcare, cat# BR-1008-39) coated on CM5 biosensor chips to achieve approximately 100 response units (RU). For kinetics measurements, two-fold serial dilutions (0.98 nM to 125 nM) of human BACE1 ECD or murine BACE1 ECD (amino acids 1-457) was injected in PBT buffer (PBS with 0.05% Tween 20) at 25° C. with a flow rate of 30 μl/min. Association rates (kon) and dissociation rates (koff) were calculated using a simple one-to-one Langmuir binding model (BIAcore™ Evaluation Software version 3.2). The equilibrium dissociation constant (KD) was calculated as the ratio koff/kon.

BACE2 = target: T2, BACE2 (Homo sapiens, UniProt Q9Y5Z0); experiment: SPR analysis, BACE2; format: binding
T2 sequence (Q9Y5Z0 63-518): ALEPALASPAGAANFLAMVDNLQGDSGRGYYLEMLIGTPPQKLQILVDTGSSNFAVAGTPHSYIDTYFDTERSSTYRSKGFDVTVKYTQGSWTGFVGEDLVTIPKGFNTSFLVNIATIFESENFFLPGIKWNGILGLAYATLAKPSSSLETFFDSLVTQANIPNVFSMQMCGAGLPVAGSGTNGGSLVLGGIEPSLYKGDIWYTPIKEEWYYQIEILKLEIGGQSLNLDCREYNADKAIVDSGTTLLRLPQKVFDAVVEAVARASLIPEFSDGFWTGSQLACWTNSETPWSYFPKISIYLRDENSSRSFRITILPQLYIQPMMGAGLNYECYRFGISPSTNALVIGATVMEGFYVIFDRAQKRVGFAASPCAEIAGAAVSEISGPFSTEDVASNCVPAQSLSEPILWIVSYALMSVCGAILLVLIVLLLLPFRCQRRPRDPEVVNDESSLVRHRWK
Procedure: Further characterization of this antibody was performed to better understand its function.

Aβ1-40 in wild-type mice = experiment: Wild-type mice, single IV dose, Aβ1-40 levels; format: in vivo, mouse; settings: 50 mg/kg single IV
Procedure: The ability of anti-BACE1 antibodies YW412.8.31 to modulate amyloidogenic processing was also assessed in wild-type mice. Briefly, experiments were performed as described above. A single dose of control IgG antibody or YW412.8.31 anti-BACE1 antibody (50 mg/kg) was delivered systemically by intravenous (IV) injection to wild-type mice. After 24 or 48 hours, plasma and brain samples were harvested and Aβ1-40 levels were analyzed. The concentrations of total mouse Aβ1-40 in plasma and brain were determined using a sandwich ELISA following similar procedures described below for measuring total anti-BACE1 antibody concentrations. Briefly, rabbit polyclonal antibody specific for the C terminus of Aβ1-40 (Millipore, Bedford, Mass.) was coated onto plates, and biotinylated anti-mouse Aβ monoclonal antibody M3.2 (Covance, Dedham, Mass.) was used for detection. The assay had lower limit of quantification values of 1.96 pg/ml in plasma and 39.1 pg/g in brain. As is shown in FIG. 16, panel B, Plasma Aβ1-40 was reduced by 35% and cortical Aβ1-40 was reduced by 20%.

T1 sequence (P56818 22-457): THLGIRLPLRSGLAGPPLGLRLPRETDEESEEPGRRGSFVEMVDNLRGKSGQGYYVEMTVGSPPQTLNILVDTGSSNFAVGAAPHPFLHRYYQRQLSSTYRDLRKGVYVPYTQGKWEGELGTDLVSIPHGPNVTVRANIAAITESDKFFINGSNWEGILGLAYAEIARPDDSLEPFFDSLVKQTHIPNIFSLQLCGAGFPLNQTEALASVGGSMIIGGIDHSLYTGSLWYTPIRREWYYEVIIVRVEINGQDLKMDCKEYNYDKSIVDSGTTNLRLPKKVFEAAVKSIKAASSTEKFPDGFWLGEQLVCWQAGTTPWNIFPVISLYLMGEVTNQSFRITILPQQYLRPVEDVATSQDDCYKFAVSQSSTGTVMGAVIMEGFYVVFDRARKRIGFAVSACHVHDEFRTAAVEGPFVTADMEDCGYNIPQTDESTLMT
Chain of BACE1 (P56817 22-457): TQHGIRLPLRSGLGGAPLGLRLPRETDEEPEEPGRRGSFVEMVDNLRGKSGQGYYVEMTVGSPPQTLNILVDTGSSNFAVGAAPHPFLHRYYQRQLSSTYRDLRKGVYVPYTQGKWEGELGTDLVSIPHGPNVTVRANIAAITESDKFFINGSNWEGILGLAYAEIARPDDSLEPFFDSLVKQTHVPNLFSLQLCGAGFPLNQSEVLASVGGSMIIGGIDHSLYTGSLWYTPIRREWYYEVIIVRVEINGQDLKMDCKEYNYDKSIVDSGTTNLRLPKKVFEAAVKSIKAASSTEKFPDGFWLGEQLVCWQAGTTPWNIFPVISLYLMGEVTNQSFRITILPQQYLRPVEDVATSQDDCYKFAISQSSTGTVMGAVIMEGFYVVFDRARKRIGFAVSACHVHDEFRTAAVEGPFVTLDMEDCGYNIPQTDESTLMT

B1: YW412.8.31: affinity matured form of YW412.8 anti-BACE1 antibody (antibody, V domains shown)
VH: EVQLVESGGGLVQPGGSLRLSCAASGFTFLGYGIHWVRQAPGKGLEWVGWISPAGGSTDYADSVKGRFTISADTSKNTAYLQMNSLRAEDTAVYYCARGPFSPWVMDYWGQGTLVTVSS
VL: DIQMTQSPSSLSASVGDRVTITCRASQDVSTAVAWYQQKPGKAPKLLIYSASFLYSGVPSRFSGSGSGTDFTLTISSLQPEDFATYYCQQFPTYLPTFGQGTKVEIK
- maximal inhibition (BACE1): 77%
- KON (murine BACE1 ECD): 1.01 × 10^5 M^−1S^−1 and 1.4 × 10^5 M^−1S^−1
- Kd (murine BACE1 ECD): 1.4 nM and 2.1 nM
- binding to BACE2 (BACE2): does not bind
- reduction of cortical Aβ1-40 (Aβ1-40 in wild-type mice; 24 or 48 hours): 20%
- reduction of plasma Aβ1-40 (Aβ1-40 in wild-type mice; at 24 hr): 35%
